Results published in paper PMC12120875.

Molecular target: VqERF1B-mCherry (Vitis quinquangularis accession 'Danfeng-2')
Assay: FRET or BRET

FRET efficiency: 32%
Substance: VqERF062-GFP (natural protein)
